Measurements published in article PMC5072561.

Tests used:
[1] = target: tunB (tunicate B, CBY30360.1), Oikopleura dioica S100 protein (Oikopleura dioica); assay: native MS; nanoESI time-of-flight MS; 10 or 100 mM ammonium acetate, pH 7.4; protein diluted from 10 uM to 0.01 uM; monomer to dimer
[2] = target: tunB (tunicate B, CBY30360.1), Oikopleura dioica S100 protein (Oikopleura dioica); assay: AUC; sedimentation velocity; ~50 uM protein; 25 mM TES, 100 mM NaCl, 1 mM TCEP, pH 7.4; interference optics; c(s) by SedFit; monomer to dimer
[3] = target: tunA (tunicate A, CBY12809.1), Oikopleura dioica S100 protein (Oikopleura dioica); assay: native MS; nanoESI time-of-flight MS; 10 or 100 mM ammonium acetate, pH 7.4; protein diluted from 10 uM to 0.01 uM; monomer to dimer
[4] = target: tunA (tunicate A, CBY12809.1), Oikopleura dioica S100 protein (Oikopleura dioica); assay: AUC; sedimentation velocity; ~50 uM protein; 25 mM TES, 100 mM NaCl, 1 mM TCEP, pH 7.4; interference optics; c(s) by SedFit; monomer to dimer

Substance	stoichiometry N [1]	stoichiometry N [2]	stoichiometry N [3]	stoichiometry N [4]
tunB (tunicate B, CBY30360.1), Oikopleura dioica S100 protein (natural protein)	2	2		
tunA (tunicate A, CBY12809.1), Oikopleura dioica S100 protein (natural protein)			2	2
